US20220348661A1 (HARBOUR BIOMED SHANGHAI, published 2022)
Positions count from the first letter of the chain named.

T1: human B7H4 (human, UniProt Q7Z7D3 25-282)
T1 construct: whole, on cells; also called B7H4 on tumor cell SK-BR-3
T1 sequence (looked up): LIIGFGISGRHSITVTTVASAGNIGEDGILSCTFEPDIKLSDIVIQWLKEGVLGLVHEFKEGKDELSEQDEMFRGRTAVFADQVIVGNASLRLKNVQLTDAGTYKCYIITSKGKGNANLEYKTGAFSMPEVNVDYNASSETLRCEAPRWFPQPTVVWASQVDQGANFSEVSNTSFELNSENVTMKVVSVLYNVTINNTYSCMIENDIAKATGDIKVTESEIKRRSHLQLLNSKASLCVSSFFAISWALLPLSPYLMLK

B1: bispecific antibody PR002883 targeting B7H4xCD3 (bispecific antibody)
heavy 1: QAVVTQEPSLTVSPGGTVTLTCRSSTGAVTTSNYANWVQQKPGQAPRGLIGGTNKRAPWTPARFSGSLLGDKAALTLLGAQPEDEAEYFCALWYSNLWVFGGGTKLTVLGGGQSGQGGSGGGGSEVQLVESGGGLVQPGGSLKLSCAASGFTFNTYAMNWVRQASGKGLEWVGRIRSKYNNYATYYADSVKDRFTISRDDSKSTLYLQMNSLKTEDTAVYYCVRHGNFGNSYVSWFAYWGQGTLVTVSSASEPKSSDKTHTCPPCPAPEAAGGPSVFLFPPKPKDTLMISRTPEVTCVVVDVSHEDPEVKFNWYVDGVEVHNAKTKPREEQYNSTYRVVSVLTVLHQDWLNGKEYKCKVSNKALGAPIEKTISKAKGQPREPQVYTLPPCREEMTKNQVSLWCLVKGFYPSDIAVEWESNGQPENNYKTTPPVLDSDGSFFLYSKLTVDKSRWQQGNVFSCSVMHEALHNHYTQKSLSLSPGK
heavy 2: EVQLVQSGAEVKKPGASVKVSCKASGYTFTSYWIGWVRQAPGQGLEWIGDIYPGGGYTNYNEKFKGRVTITRDTSTSTAYLELSSLRSEDTAVYYCARLAGSSYRGAMDSWGQGTLVTVSSASTKGPSVFPLAPSSKSTSGGTAALGCLVKDYFPEPVTVSWNSGALTSGVHTFPAVLQSSGLYSLSSVVTVPSSSLGTQTYICNVNHKPSNTKVDKKVEPKSCDKTHTCPPCPAPEAAGGPSVFLFPPKPKDTLMISRTPEVTCVVVDVSHEDPEVKFNWYVDGVEVHNAKTKPREEQYNSTYRVVSVLTVLHQDWLNGKEYKCKVSNKALGAPIEKTISKAKGQPREPQVCTLPPSREEMTKNQVSLSCAVKGFYPSDIAVEWESNGQPENNYKTTPPVLDSDGSFFLVSKLTVDKSRWQQGNVFSCSVMHEALHNHYTQKSLSLSPGK
light: DIQMTQSPSSLSASVGDRVTITCKASQGFNKYVAWYQQKPGKAPKLLIYYTSTLQPGVPSRFSGSGSGRDYTLTISSLQPEDFATYYCLQYGDLLYAFGQGTKVEIKRTVAAPSVFIFPPSDEQLKSGTASVVCLLNNFYPREAKVQWKVDNALQSGNSQESVTEQDSKDSTYSLSSTLTLSKADYEKHKVYACEVTHQGLSSPVTKSFNRGEC
notes: asymmetric three-chain structure, LALAPG; SDS-PAGE purity 70% after one-step purification; also called B7H4×CD3 bispecific antibody
B2: bispecific antibody PR002885 targeting ROR1xCD3 (bispecific antibody, human IgG1, kappa, L234A L235A)
heavy 1: B1 heavy 1
heavy 2: EVQLVESGGGLVQPGRSLRLSCTASGSDINDYPITWVRQAPGQGLEWIGFINSGGSTWYASWVKGRFTISRDDSKSIAYLQMNSLKTEDTAVYYCARGYSTYYRDFNIWGQGTLVTVSSASTKGPSVFPLAPSSKSTSGGTAALGCLVKDYFPEPVTVSWNSGALTSGVHTFPAVLQSSGLYSLSSVVTVPSSSLGTQTYICNVNHKPSNTKVDKKVEPKSCDKTHTCPPCPAPEAAGGPSVFLFPPKPKDTLMISRTPEVTCVVVDVSHEDPEVKFNWYVDGVEVHNAKTKPREEQYNSTYRVVSVLTVLHQDWLNGKEYKCKVSNKALGAPIEKTISKAKGQPREPQVCTLPPSREEMTKNQVSLSCAVKGFYPSDIAVEWESNGQPENNYKTTPPVLDSDGSFFLVSKLTVDKSRWQQGNVFSCSVMHEALHNHYTQKSLSLSPGK
light: DIQMTQSPSSLSASVGDRVTINCQASQSIDSNLAWFQQKPGQPPKLLIYRASNLASGVPDRFSGSGSGTDFTLTISSLEAEDVATYYCLGGVGAVSYRTSFGGGTKVEIKRTVAAPSVFIFPPSDEQLKSGTASVVCLLNNFYPREAKVQWKVDNALQSGNSQESVTEQDSKDSTYSLSSTLTLSKADYEKHKVYACEVTHQGLSSPVTKSFNRGEC
notes: asymmetric three-chain structure, LALAPG; SDS-PAGE purity 70% after one-step purification; also called ROR1×CD3 bispecific antibody
B3: SP34 murine-human chimeric recombinant antibody PR000260 (antibody, human IgG1, lambda, L234A L235A, V domains shown)
VH: EVQLVESGGGLVQPKGSLKLSCAASGFTFNTYAMNWVRQAPGKGLEWVARIRSKYNNYATYYADSVKDRFTISRDDSQSILYLQMNNLKTEDTAMYYCVRHGNFGNSYVSWFAYWGQGTLVTVSA
VL: QAVVTQESALTTSPGETVTLTCRSSTGAVTTSNYANWVQEKPDHLFTGLIGGTNKRAPGVPARFSGSLIGDKAALTITGAQTEDEAIYFCALWYSNLWVFGGGTKLTVLG
notes: IgG1 LALA, lambda; made in HEK293; also called SP34 chimeric antibody; PR000260(SP34)
B4: B7H4 antibody PR000014 (antibody, V domains shown)
VH: EVQLVQSGAEVKKPGASVKVSCKASGYTFTSYWIGWVRQAPGQGLEWIGDIYPGGGYTNYNEKFKGRVTITRDTSTSTAYLELSSLRSEDTAVYYCARLAGSSYRGAMDSWGQGTLVTVSS
VL: DIQMTQSPSSLSASVGDRVTITCKASQGFNKYVAWYQQKPGKAPKLLIYYTSTLQPGVPSRFSGSGSGRDYTLTISSLQPEDFATYYCLQYGDLLYAFGQGTKVEIKR
notes: variable region derived from WO2016040724; also called recombinant IgG antibody PR000014
B5: PR002835 (antibody, human IgG1, lambda, L234A L235A, V domains shown)
VH: EVQLLESGGGLVQPGGSLRLSCAASGFTFSTYAMNWVRQAPGKGLEWVSRIRSKYNNYATYYADSVKDRFTISRDNSKSTLYLQMNSLRAEDTAVYYCARHGNFGNSYVSWFAYWGQGTLVTVSS
VL: QAVVTQEPSLTVSPGGTVTLTCRSSTGAVTTSNYANWVQQKPGQAPRGLIGGTNKRAPWTPARFSGSLLGDKAALTLLGAQPEDEAEYFCALWYSNLWVFGGGTKLTVLG
notes: humanized SP34 variant, IgG1 LALAPG; also called VH3236/VL7461 IgG
B6: PR000513 (antibody, human IgG1, kappa, L234A L235A, V domains shown)
VH: B5 VH with S30N, N76D, A99V
VL: DAQMTQSPSSLSASVGDRVTITCRSSTGAVTTSNYANWVQQKPGKAPKGLIGGTNKRAPGVPSRFSGSLSGDDATLTISSLQPEDFATYFCALWYSNLWVFGGGTKVEIKR
notes: humanized SP34 variant, IgG1 LALA; also called VH3231/VK1393 IgG
B7: PR003886 (antibody, human IgG1, lambda, L234A L235A, V domains shown)
VH: B5 VH with L5V, R19K, P41S, S49G, N76D, S79N, L81A, R89K, A90T, A99T
VL: B5 VL
notes: humanized SP34 variant, IgG1 LALA; also called VH3735/VL7461 IgG
B8: PR004616 (antibody, human IgG1, lambda, L234A L235A, V domains shown)
VH: B5 VH with S79N, R100K
VL: B5 VL
notes: humanized SP34 variant, IgG1 LALA; also called VH3233/VL7461 IgG
B9: PR002836 (antibody, human IgG1, lambda, L234A L235A, V domains shown)
VH: B5 VH with L5V, R19K, P41S, S49G, N76D, R89K, A90T, A99T
VL: B5 VL
notes: humanized SP34 variant, IgG1 LALAPG; also called VH3733/VL7461 IgG
B10: PR000514 (antibody, human IgG1, kappa, L234A L235A, V domains shown)
VH: B3 VH with K15G, P41S, A49G, Q78K, I80T, N87S, M95V, A125S
VL: B6 VL
notes: humanized SP34 variant, IgG1 LALA; also called VH3731/VK1393 IgG
B11: PR002472 (antibody, human IgG1, kappa, L234A L235A, V domains shown)
VH: B5 VH with S30N, S79N, R100K
VL: B6 VL
notes: humanized SP34 variant, IgG1 LALA; very low expression yield; also called VH3230/VK1393 IgG
B12: PR002837 (antibody, human IgG1, lambda, L234A L235A, V domains shown)
VH: B5 VH with L5V, R19K, P41S, S49G, N76D, S79N, L81A, R89K, A90T, A99V
VL: B5 VL
notes: humanized SP34 variant, IgG1 LALAPG; also called VH3734/VL7461 IgG

How the values were obtained:
human CD3 [1] = target: T2, human CD3 (human, UniProt P07766 23-207; P09693 23-182; P04234 22-171; P20963 22-164); test: flow cytometry on human pan-T cells
T2 construct: whole, on cells; SP34 is described as an anti-human CD3e antibody; also called human TCR/CD3 complex; CD3 on human pan-T cells

human CD3 [2] = target: T2, human CD3; test: flow cytometry on recombinant CHOK1 cells overexpressing human CD3
Excerpt: The flow cytometryFACS was used to analyse the binding of the CD3 antibody to CD3-expressing cells, where the CD3-expressing cells could be: CHOK1 cells overexpressing human CD3 or HEK 293 cells (plasmids encoding the ORF of γ, δ, ε, and ζ chains of human-derived CD3 and plasmids encoding the ORF of α and β chains of human TCR were co-transfected with host cells CHOK1 (ATCC, CCL-61) or HEK293 (ATCC, CRL-1573) to construct stable cell lines expressing the structure of the human TCR/CD3 complex); CHOK1 or HEK293 cells overexpressing cynomolgus monkey CD3; human pan-T cells (isolated with the human pan-T cell isolation kit (Miltenyi, #130-096-535) from PBMC); cynomolgus monkey pan-T cells. Specifically, the collected cells were washed twice with PBS containing 2% FBS (FACS buffer), and resuspended with FACS buffer, divided into 96 well plates with 1×10⁵ cells per well, centrifuged at 500 g for 5 minutes. The supernatant was discarded, and 100 μl of pre-gradient diluted CD3 antibody was added, then incubating for 1 hour at room temperature and washing twice with FACS buffer. […] The fluorescent luminescence signal value were read by flow cytometry (BD FACS CANTOII or ACEA NovoCyte), and the resulted data were processed and analyzed by software FlowJo v10 (FlowJo, LLC). […]

human B7H4 = target: T1, human B7H4; test: flow cytometry on SK-BR-3 cells expressing human B7H4
Experimental: This Example investigates the ability of the bispecific antibody binding tumor cell SK-BR-3 (ATCC, HTB-30) expressing human B7H4. Specifically, collected cell SK-BR-3 suspension, adjusted the cell density to 1×10⁶/ml, and inoculated them at 100 μl/well in a 96 well V-bottom plate (Corning, #3894); subsequently, the antibody to be tested with a concentration 2-fold of final concentration obtained by 3-fold gradient dilution was added at volume of 100 μl/well. Cells were incubated at 4° C. in the dark for 2 hours. Afterwards, the cells were rinsed twice with 100 μl/well of pre-chilled PBS, centrifuged at 500 g, 4° C. for 5 minutes. The supernatant was discarded. Then added 100 μl/well of secondary antibody Alexa Fluor 488 AffiniPure Goat Anti-Human IgG, Fcγ fragment specific (Jackson ImmunoResearch, #109-545-098), and incubated the cells from light at 4° C. in the dark for 1 hour. Then the cells were rinsed twice with 100 μl/well of pre-chilled PBS, centrifuged at 500 g, for 5 minutes. The supernatant was discarded. Finally, the cells were resuspended with 200 μL/well of pre-chilled PBS. The fluorescent luminescence signal value were read by flow cytometry (BD FACS CANTOII or ACEA NovoCyte), and the resulted data were processed and analyzed by software FlowJo v10 (FlowJo, LLC). […]

human CD3 [3] = target: T2, human CD3; test: flow cytometry on human pan-T cells; MFI at 7.4 or 10 µg/ml relative to PR000260
Excerpt: The flow cytometryFACS was used to analyse the binding of the CD3 antibody to CD3-expressing cells, where the CD3-expressing cells could be: CHOK1 cells overexpressing human CD3 or HEK 293 cells (plasmids encoding the ORF of γ, δ, ε, and ζ chains of human-derived CD3 and plasmids encoding the ORF of α and β chains of human TCR were co-transfected with host cells CHOK1 (ATCC, CCL-61) or HEK293 (ATCC, CRL-1573) to construct stable cell lines expressing the structure of the human TCR/CD3 complex); CHOK1 or HEK293 cells overexpressing cynomolgus monkey CD3; human pan-T cells (isolated with the human pan-T cell isolation kit (Miltenyi, #130-096-535) from PBMC); cynomolgus monkey pan-T cells. Specifically, the collected cells were washed twice with PBS containing 2% FBS (FACS buffer), and resuspended with FACS buffer, divided into 96 well plates with 1×10⁵ cells per well, centrifuged at 500 g for 5 minutes. The supernatant was discarded, and 100 μl of pre-gradient diluted CD3 antibody was added, then incubating for 1 hour at room temperature and washing twice with FACS buffer. The cells were resuspended with FACS buffer diluted with secondary antibody Alexa Fluor 488 AffiniPure Goat Anti-Human IgG, Fcγ fragment specific (Jackson ImmunoResearch, #109-545-098), then incubated at room temperature in the dark for 30 minutes. The cells were washed twice with FACS buffer, and resuspended with 200 μl FACS buffer. The fluorescent luminescence signal value were read by flow cytometry (BD FACS CANTOII or ACEA NovoCyte), and the resulted data were processed and analyzed by software FlowJo v10 (FlowJo, LLC). The software GraphPad Prism 8 was used for data processing and graphical analysis, and parameters such as binding curves and EC50 values can be obtained by four-parameter nonlinear fitting.
FIG. 7(A) to (G) show the binding ability of the CD3 antibodies obtained in the Example 4.2 (including PR000260 and its mutants) to human pan-T cells, respectively. The fluorescence intensity MFI of the CD3 antibody binding to human pan-T cells and the relative ratio relative to the initial antibody PR000260 were calculated when the antibody concentration was 7.4 or 10 μg/ml.

T2 sequence (P07766 23-207, chain 1 of 4): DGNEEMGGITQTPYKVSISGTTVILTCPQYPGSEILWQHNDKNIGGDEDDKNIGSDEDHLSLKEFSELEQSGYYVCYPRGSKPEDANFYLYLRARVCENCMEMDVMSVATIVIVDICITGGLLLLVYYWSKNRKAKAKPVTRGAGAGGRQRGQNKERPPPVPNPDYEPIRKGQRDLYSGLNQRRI
T2 sequence (P09693 23-182, chain 2 of 4): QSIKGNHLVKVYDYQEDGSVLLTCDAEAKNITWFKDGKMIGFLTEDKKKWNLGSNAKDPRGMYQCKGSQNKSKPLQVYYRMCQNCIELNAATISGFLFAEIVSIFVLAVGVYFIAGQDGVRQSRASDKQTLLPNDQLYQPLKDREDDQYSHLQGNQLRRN
T2 sequence (P04234 22-171, chain 3 of 4): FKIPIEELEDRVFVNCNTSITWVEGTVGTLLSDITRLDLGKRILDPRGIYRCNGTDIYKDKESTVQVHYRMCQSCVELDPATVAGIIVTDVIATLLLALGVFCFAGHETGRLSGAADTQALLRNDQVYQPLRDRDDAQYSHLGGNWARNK
T2 sequence (P20963 22-164, chain 4 of 4): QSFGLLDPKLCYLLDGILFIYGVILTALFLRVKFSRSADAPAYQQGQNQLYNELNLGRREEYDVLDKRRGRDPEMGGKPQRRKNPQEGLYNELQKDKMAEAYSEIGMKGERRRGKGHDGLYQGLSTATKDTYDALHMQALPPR

| Binder | binding result (human CD3 [3]) | other results |
| --- | --- | --- |
| B1 | – | binding result (human CD3 [1]): binds |
| B2 | – | binding result (human CD3 [1]): binds |
| B3 | – | binding result (human CD3 [2]): binds |
| B4 | – | binding result (human B7H4): binds |
| B5 | binds | – |
| B6 | binds | – |
| B7 | binds | – |
| B8 | binds | – |
| B9 | binds | – |
| B10 | binds | – |
| B11 | binds | – |
| B12 | binds | – |
